According to patent JP2018076351A (dated 2018):

Experiments:
[1] = target: human PCSK9 (wild type) (human); assay: KinExA, solution equilibrium, PCSK9-coated beads
[2] = target: human PCSK9 (wild type) (human); assay: Biacore at pH 6.0 (HBS-P with 0.01 % BSA); KD from nonlinear regression of competition curves, n=1
[3] = target: cynomolgus monkey PCSK9 (cynomolgus monkey, UniProt A0A7N9D9N8 150-747); assay: KinExA, solution equilibrium, PCSK9-coated beads; KD adjusted for 50 % active cPCSK9

| Binder | Kd [1] [pM] | Kd [2] [pM] | Kd [3] [pM] |
| --- | --- | --- | --- |
| 31H4 (antibody, V domains shown) VH: EVQLVESGGGLVKPGGSLRLSCAASGFTFSSYSMNWVRQAPGKGLEWVSSISSSSSYISYADSVKGRFTISRDNAKNSLYLQMNSLRAEDTAVYFCARDYDFWSAYYDAFDVWGQGTMVTVSS VL: QSVLTQPPSVSGAPGQRVTISCTGSSSNIGAGYDVHWYQQLPGTAPKLLISGNSNRPSGVPDRFSGSKSGTSASLAITGLQAEDEADYYCQSYDSSLSGSVFGGGTKLTVLQ | 3 | 12.5 | 2 |
| 16F12 (antibody, V domains shown) VH: QVHLVESGGGVVQPGRSLRLSCAASGFTFNSFGMHWVRQAPGKGLEWVALIWSDGSDEYYADSVKGRFTISRDNSKNTLYLQMNSLRAEDTAVYYCARAIAALYYYYGMDVWGQGTTVTVSS VL: QSVLTQPPSVSAAPGQKVTISCSGSSSNIGNNFVSWYQQLPGTAPKLLIYDYNKRPSGIPDRFSGSKSGTSATLGITGLQTGDEADYYCGTWDSSLSAYVFGTGTRVTVLQ | 15 | 29 | 16 |
